# Measurements taken from patent US20250043302A1, “MUTATED HYDROXYPHENYLPYRUVATE DIOXYGENASE POLYPEPTIDE, AND CODING GENE AND USE THEREOF” (BEIJING DABEINONG BIOTECHNOLOGY CO., LTD., priority 2021, published 2025).
# B1: AsHPPDm-F372A-F383W-02: nucleotide sequence encoding Avena sativa HPPD with F372A+F383W; vector DBN11726 (nucleic acid)
# DNA: ATGCCACCTACTCCAGCTACAGCTACTGGTGCTGCTGCTGCTGCCGTTACTCCTGAGCACGCTGCCAGGTCATTCCCCAGGGTGGTTCGCGTGAACCCCAGATCTGATAGGTTCCCAGTTCTGAGCTTCCACCATGTTGAGCTGTGGTGCGCTGATGCTGCTTCTGCTGCTGGCAGGTTCTCTTTCGCTCTTGGTGCTCCACTCGCTGCTAGATCTGATCTGTCTACAGGAAATAGCGCTCATGCCTCACTCCTGCTTCGCTCAGGTGCTTTGGCCTTCCTCTTCACCGCTCCATATGCTCCCCCACCTCAGGAGGCTGCTACTGCTGCTGCTACAGCCTCCATTCCAAGCTTCTCAGCTGATGCCGCTAGAACCTTCGCTGCTGCTCATGGACTTGCCGTGAGGTCTGTTGGTGTTCGCGTGGCTGATGCTGCTGAGGCTTTCAGAGTTTCCGTTGCCGGCGGAGCTAGGCCAGCTTTCGCTCCTGCTGATTTGGGACATGGTTTCGGCCTGGCTGAGGTTGAGCTTTACGGTGACGTGGTTCTCCGCTTCGTGTCTTACCCAGATGAGACTGACCTGCCTTTCCTTCCCGGCTTCGAGAGAGTTTCCTCTCCTGGTGCCGTGGATTACGGCCTGACAAGGTTCGACCACGTGGTTGGAAACGTTCCCGAGATGGCTCCAGTGATCGATTACATGAAGGGCTTCCTTGGATTCCATGAGTTCGCCGAGTTCACTGCTGAGGACGTGGGAACCACTGAGTCCGGTTTGAACTCTGTGGTTCTCGCCAACAATTCTGAGGCTGTTTTGCTCCCTCTGAATGAGCCTGTGCATGGAACCAAGAGGAGAAGCCAGATTCAAACTTACCTGGAGTACCACGGTGGCCCTGGAGTTCAGCATATCGCCCTTGCTTCTAATGATGTGTTGCGCACACTCAGAGAGATGCGCGCCAGAACCCCCATGGGAGGTTTCGAGTTCATGGCCCCACCACAGGCTAAGTACTACGAGGGCGTTAGAAGGATTGCTGGAGACGTGTTGAGCGAGGAGCAGATCAAGGAGTGCCAAGAGCTGGGTGTTCTTGTGGATAGGGATGACCAGGGCGTTCTGCTTCAAATTGCCACTAAGCCAGTGGGCGACCGCCCTACATTCTGGCTTGAGATGATTCAAAGAATCGGCTGCATGGAGAAGGATGAGGTTGGACAGGAGTACCAAAAGGGCGGATGCGGTGGCTTCGGAAAGGGTAACTTCAGCGAGTTGTTCAAGTCAATCGAGGACTACGAGAAGAGCCTCGAGGTGAAGCAGTCAGTGGTTGCCCAAAAGTCCTGA
# modifications: AsHPPDm-F372A-F383W-02 Nucleotide Sequence
# notes: vector DBN11726
# Assays:
# Assay type in all cases: in vivo
# [1] = test system: Arabidopsis thaliana T1 plants; experiment: Topramezone tolerance of transgenic Arabidopsis thaliana T1 plants (spray, bleached leaf area grade, damage score); conditions: for Classification and statistics of the grade of pesticide damage: Grade 0 / Classification and statistics of the grade of pesticide damage: Grade 1 / Classification and statistics of the grade of pesticide damage: Grade 2 / Classification and statistics of the grade of pesticide damage: Grade 3: number of plants; for Classification and statistics of the grade of pesticide damage: Grade 0 / Classification and statistics of the grade of pesticide damage: Grade 1 / Classification and statistics of the grade of pesticide damage: Grade 2 / Classification and statistics of the grade of pesticide damage: Grade 3 / Scores / Resistance evaluation: 7 DAT, Table 1; for Scores: pesticide damage score 0-100
# From the text: T1 transformants were initially selected from the untransformed seeds using a glufosinate selection scheme. The Arabidopsis thaliana T1 plants (AsHPPD-02) into which the AsHPPD-02 nucleotide sequence was introduced, the Arabidopsis thaliana T1 plants (AsHPPDm-F372A-02) into which the AsHPPDm-F372A-02 nucleotide sequence was introduced, the Arabidopsis thaliana T1 plants (AsHPPDm-F383W-02) into which the AsHPPDm-F383W-02 nucleotide sequence was introduced, the Arabidopsis thaliana T1 plants (AsHPPDm-F372A-F383W-02) into which the AsHPPDm-F372A-F383W-02 nucleotide sequence was introduced, the Arabidopsis thaliana T1 plants (DBN11726N) into which the control recombinant expression vector DBN11726N was introduced, and the wild-type Arabidopsis thaliana plants (CK) (18 days after sowing) were sprayed respectively with topramezone at three concentrations (100 g ai/ha (four-fold field concentration, 4×), 200 g ai/ha (eight-fold field concentration, 8×), and 0 g ai/ha (water, 0×)), isoxaflutole at three concentrations (140 g ai/ha (two-fold field concentration, 2×), 280 g ai/ha (four-fold field concentration, 4×), and 0 g ai/ha (water, 0×)), and mesotrione at three concentrations (210 g ai/ha (two-fold field concentration, […]), 420 g ai/ha (four-fold field concentration, 4×), and 0 g ai/ha (water, 0×)), to determine the tolerance of Arabidopsis thaliana to the herbicides. The degree of damage caused by the herbicide was measured for each plant according to the proportion of bleached leaf area (the proportion of bleached leaf area=bleached leaf area/total leaf area×100%) 7 days after spraying (7 DAT): the case where there is basically no bleached phenotype is defined as grade 0, the case where the proportion of bleached leaf area is less than 50% is defined as grade 1, the case where the proportion of bleached leaf area is more than 50% is defined as grade 2, and the case where the proportion of bleached leaf area is 100% grade is defined as grade 3.
# According to the method as described above in point 6 of Example 1, the aforementioned Arabidopsis thaliana T1 plants and wild-type Arabidopsis thaliana plants (CK) (18 days after sowing) were sprayed respectively with topramezone at three concentrations (25 g ai/ha (one-fold field concentration, 1×). 100 g ai/ha (four-fold field concentration, 4×), and 0 g ai/ha (water, 0×)), isoxaflutole at three concentrations (35 g ai/ha (half-fold field concentration, 0.5×). 70 g ai/ha (one-fold field concentration, 1×), and 0 g ai/ha (water, 0×)), and mesotrione at three concentrations (52.5 g ai/ha (half-fold field concentration, 0.5×), 105 g ai/ha (one-fold field concentration, 1×), and 0 g ai/ha (water, 0×)) to detect the tolerance of Arabidopsis thaliana to the herbicides.
# According to the method as described above in point 6 of Example 1, the aforementioned Arabidopsis thaliana T1 plants and wild-type Arabidopsis thaliana plants (CK) (18 days after sowing) were sprayed with topramezone at three different concentrations (i.e., 100 g ai/ha (four-fold field concentration, 4×), 200 g ai/ha (eight-fold field concentration, 8×) and 0 g ai/ha (water, 0×)), isoxaflutole at three different concentrations (i.e., 140 g ai/ha (two-fold field concentration, 2×), 280 g ai/ha (four-fold field concentration, 4×) and 0 g ai/ha (water, 0×)), and mesotrione at three different concentrations (i.e., 210 g ai/ha (two-fold field concentration, 2×), 420 g ai/ha (four-fold field concentration, 4×) and 0 g ai/ha (water, 0×)) respectively to detect the herbicide tolerance of Arabidopsis thaliana. […]
# [2] = test system: Arabidopsis thaliana T1 plants; experiment: Isoxaflutole tolerance of transgenic Arabidopsis thaliana T1 plants (spray, bleached leaf area grade, damage score); conditions: for Resistance evaluation / Classification and statistics of the grade of pesticide damage: Grade 0 / Classification and statistics of the grade of pesticide damage: Grade 1 / Classification and statistics of the grade of pesticide damage: Grade 2 / Classification and statistics of the grade of pesticide damage: Grade 3 / Scores: 7 DAT, Table 2; for Classification and statistics of the grade of pesticide damage: Grade 0 / Classification and statistics of the grade of pesticide damage: Grade 1 / Classification and statistics of the grade of pesticide damage: Grade 2 / Classification and statistics of the grade of pesticide damage: Grade 3: number of plants; for Scores: pesticide damage score 0-100;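 for Scores: Weighted damage index from 0 to 100 where higher means more damage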
# Summary of the method: (§1)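 Damage was assessed by bleaching grade (0 none; 1 <50%; 2 >50%; 3 100% of leaf area) one week after spraying. Sprays on 18-day-old T1 and wild-type plants used field-rate multiples: topramezone 25–200, isoxaflutole 35–280, mesotrione 52.5–420 g ai/ha.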
# [3] = test system: Arabidopsis thaliana T1 plants; experiment: Mesotrione tolerance of transgenic Arabidopsis thaliana T1 plants (spray, bleached leaf area grade, damage score); design: Scores: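 damage score 0-100 computed as Σ(N×S)/(T×M)×100 over grades 0-3 with higher meaning more damage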; conditions: for Resistance evaluation / Classification and statistics of the grade of pesticide damage: Grade 0 / Classification and statistics of the grade of pesticide damage: Grade 1 / Classification and statistics of the grade of pesticide damage: Grade 2 / Classification and statistics of the grade of pesticide damage: Grade 3 / Scores: 7 DAT, Table 3; for Classification and statistics of the grade of pesticide damage: Grade 0 / Classification and statistics of the grade of pesticide damage: Grade 1 / Classification and statistics of the grade of pesticide damage: Grade 2 / Classification and statistics of the grade of pesticide damage: Grade 3: number of plants; for Scores: pesticide damage score 0-100
# Summary of the method: as §1
# [4] = mesotrione 210 g ai/ha (two-fold field concentration)
molecule,measurement,setting,value
B1,Classification and statistics of the grade of pesticide damage: Grade 0,[1]; topramezone 100 g ai/ha (4×),16
same,Classification and statistics of the grade of pesticide damage: Grade 1,[1]; topramezone 100 g ai/ha (4×),0
same,Classification and statistics of the grade of pesticide damage: Grade 2,[1]; topramezone 100 g ai/ha (4×),0
same,Classification and statistics of the grade of pesticide damage: Grade 3,[1]; topramezone 100 g ai/ha (4×),0
same,Classification and statistics of the grade of pesticide damage: Grade 0,[1]; topramezone 200 g ai/ha (8×),16
same,Classification and statistics of the grade of pesticide damage: Grade 1,[1]; topramezone 200 g ai/ha (8×),0
same,Classification and statistics of the grade of pesticide damage: Grade 2,[1]; topramezone 200 g ai/ha (8×),0
same,Classification and statistics of the grade of pesticide damage: Grade 3,[1]; topramezone 200 g ai/ha (8×),0
same,Scores,[1]; topramezone 100 g ai/ha (4×),0
same,Scores,[1]; topramezone 200 g ai/ha (8×),0
same,Resistance evaluation,[1]; topramezone 100 g ai/ha (4×),highly resistant (highly resistant plants (scores 0-15))
same,Resistance evaluation,[1]; topramezone 200 g ai/ha (8×),highly resistant (highly resistant plants (scores 0-15))
same,tolerance to topramezone (resistance class),[1]; topramezone at four-fold or eight-fold field concentration,highly-resistant
same,tolerance to isoxaflutole (in words),[2]; in vivo,different degrees of tolerance
same,Resistance evaluation,[2]; isoxaflutole 140 g ai/ha (2×),highly resistant (highly resistant plants (scores 0-15))
same,Resistance evaluation,[2]; isoxaflutole 280 g ai/ha (4×),highly resistant (highly resistant plants (scores 0-15))
same,tolerance to isoxaflutole (resistance class),[2]; isoxaflutole at four-fold field concentration,highly-resistant
same,tolerance to isoxaflutole (resistance class),[2]; isoxaflutole at two-fold field concentration,highly-resistant
same,Classification and statistics of the grade of pesticide damage: Grade 0,[2]; isoxaflutole 140 g ai/ha (2×),16
same,Classification and statistics of the grade of pesticide damage: Grade 1,[2]; isoxaflutole 140 g ai/ha (2×),0
same,Classification and statistics of the grade of pesticide damage: Grade 2,[2]; isoxaflutole 140 g ai/ha (2×),0
same,Classification and statistics of the grade of pesticide damage: Grade 3,[2]; isoxaflutole 140 g ai/ha (2×),0
same,Classification and statistics of the grade of pesticide damage: Grade 0,[2]; isoxaflutole 280 g ai/ha (4×),12
same,Classification and statistics of the grade of pesticide damage: Grade 1,[2]; isoxaflutole 280 g ai/ha (4×),4
same,Classification and statistics of the grade of pesticide damage: Grade 2,[2]; isoxaflutole 280 g ai/ha (4×),0
same,Classification and statistics of the grade of pesticide damage: Grade 3,[2]; isoxaflutole 280 g ai/ha (4×),0
same,Scores,[2]; isoxaflutole 140 g ai/ha (2×),0
same,Scores,[2]; isoxaflutole 280 g ai/ha (4×),8
same,tolerance to mesotrione (in words),[3]; in vivo,different degrees of tolerance
same,Resistance evaluation,[3]; [4],highly resistant (highly resistant plants (scores 0-15))
same,Resistance evaluation,[3]; mesotrione 420 g ai/ha (4×),highly resistant (highly resistant plants (scores 0-15))
same,tolerance to mesotrione (resistance class),[3]; mesotrione at four-fold field concentration,highly-resistant
same,tolerance to mesotrione (resistance class),[3]; mesotrione at two-fold field concentration,highly-resistant
same,Classification and statistics of the grade of pesticide damage: Grade 0,[3]; [4],16
same,Classification and statistics of the grade of pesticide damage: Grade 1,[3]; [4],0
same,Classification and statistics of the grade of pesticide damage: Grade 2,[3]; [4],0
same,Classification and statistics of the grade of pesticide damage: Grade 3,[3]; [4],0
same,Classification and statistics of the grade of pesticide damage: Grade 0,[3]; mesotrione 420 g ai/ha (4×),15
same,Classification and statistics of the grade of pesticide damage: Grade 1,[3]; mesotrione 420 g ai/ha (4×),1
same,Classification and statistics of the grade of pesticide damage: Grade 2,[3]; mesotrione 420 g ai/ha (4×),0
same,Classification and statistics of the grade of pesticide damage: Grade 3,[3]; mesotrione 420 g ai/ha (4×),0
same,Scores,[3]; [4],0
same,Scores,[3]; mesotrione 420 g ai/ha (4×),2
